The text below walks through data of patent US20220332804A1 (CSL INNOVATION, published 2022).

Test in all cases: SPR, antibody captured, C2 as analyte;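 further: biacore at 37 °C, anti-C2 mAbs held by immobilised goat anti-human IgG, C2 alanine or serine mutants injected, double-referenced sensorgrams fitted to a 1:1 kinetic or steady-state model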
Background: Surface plasmon resonance follows binding to a sensor surface in real time, without labels.

Assay [1] addresses T1, human C2 V418A (human, UniProt P06681 21-752).
T1 sequence: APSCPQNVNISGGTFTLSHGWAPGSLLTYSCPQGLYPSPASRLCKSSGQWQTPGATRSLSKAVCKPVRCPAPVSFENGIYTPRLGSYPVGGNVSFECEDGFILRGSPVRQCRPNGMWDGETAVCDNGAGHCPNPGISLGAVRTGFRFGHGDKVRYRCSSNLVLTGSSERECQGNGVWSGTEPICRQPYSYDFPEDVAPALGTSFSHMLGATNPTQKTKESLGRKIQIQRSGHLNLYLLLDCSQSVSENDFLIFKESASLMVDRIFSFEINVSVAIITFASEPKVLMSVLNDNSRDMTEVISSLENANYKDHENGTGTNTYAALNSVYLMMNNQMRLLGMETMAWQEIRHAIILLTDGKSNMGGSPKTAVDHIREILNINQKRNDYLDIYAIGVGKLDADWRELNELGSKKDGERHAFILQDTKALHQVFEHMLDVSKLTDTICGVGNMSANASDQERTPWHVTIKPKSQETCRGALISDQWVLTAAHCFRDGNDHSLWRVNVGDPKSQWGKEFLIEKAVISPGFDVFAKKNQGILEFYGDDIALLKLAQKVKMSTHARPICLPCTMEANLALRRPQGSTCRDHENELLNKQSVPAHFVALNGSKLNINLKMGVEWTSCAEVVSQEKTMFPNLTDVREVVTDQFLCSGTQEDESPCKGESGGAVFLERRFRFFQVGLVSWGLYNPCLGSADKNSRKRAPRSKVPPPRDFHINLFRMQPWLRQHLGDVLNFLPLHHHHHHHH

The target in assay [2] is T2, human C2 W420A (human, UniProt P06681 21-752).
T2 sequence: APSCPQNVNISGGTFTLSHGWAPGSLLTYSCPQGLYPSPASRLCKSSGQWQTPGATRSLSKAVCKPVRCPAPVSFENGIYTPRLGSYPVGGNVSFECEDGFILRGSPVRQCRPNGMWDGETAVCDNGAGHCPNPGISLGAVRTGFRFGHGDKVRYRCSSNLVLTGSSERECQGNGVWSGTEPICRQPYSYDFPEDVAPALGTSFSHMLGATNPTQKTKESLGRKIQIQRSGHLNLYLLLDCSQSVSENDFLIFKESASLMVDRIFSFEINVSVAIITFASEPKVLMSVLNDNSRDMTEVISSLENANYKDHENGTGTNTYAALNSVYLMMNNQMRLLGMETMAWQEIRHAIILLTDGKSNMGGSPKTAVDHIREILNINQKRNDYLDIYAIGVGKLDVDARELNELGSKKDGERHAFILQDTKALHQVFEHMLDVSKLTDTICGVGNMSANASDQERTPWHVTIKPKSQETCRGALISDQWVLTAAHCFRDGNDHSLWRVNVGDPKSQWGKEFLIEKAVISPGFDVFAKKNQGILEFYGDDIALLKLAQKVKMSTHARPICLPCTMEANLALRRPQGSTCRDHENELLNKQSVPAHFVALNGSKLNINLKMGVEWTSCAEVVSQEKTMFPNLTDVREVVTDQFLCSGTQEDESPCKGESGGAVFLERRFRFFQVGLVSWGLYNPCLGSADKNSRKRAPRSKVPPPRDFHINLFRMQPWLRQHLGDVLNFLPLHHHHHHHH

Assay [3] concerns the target T3, human C2 K443A (human, UniProt P06681 21-752).
T3 sequence: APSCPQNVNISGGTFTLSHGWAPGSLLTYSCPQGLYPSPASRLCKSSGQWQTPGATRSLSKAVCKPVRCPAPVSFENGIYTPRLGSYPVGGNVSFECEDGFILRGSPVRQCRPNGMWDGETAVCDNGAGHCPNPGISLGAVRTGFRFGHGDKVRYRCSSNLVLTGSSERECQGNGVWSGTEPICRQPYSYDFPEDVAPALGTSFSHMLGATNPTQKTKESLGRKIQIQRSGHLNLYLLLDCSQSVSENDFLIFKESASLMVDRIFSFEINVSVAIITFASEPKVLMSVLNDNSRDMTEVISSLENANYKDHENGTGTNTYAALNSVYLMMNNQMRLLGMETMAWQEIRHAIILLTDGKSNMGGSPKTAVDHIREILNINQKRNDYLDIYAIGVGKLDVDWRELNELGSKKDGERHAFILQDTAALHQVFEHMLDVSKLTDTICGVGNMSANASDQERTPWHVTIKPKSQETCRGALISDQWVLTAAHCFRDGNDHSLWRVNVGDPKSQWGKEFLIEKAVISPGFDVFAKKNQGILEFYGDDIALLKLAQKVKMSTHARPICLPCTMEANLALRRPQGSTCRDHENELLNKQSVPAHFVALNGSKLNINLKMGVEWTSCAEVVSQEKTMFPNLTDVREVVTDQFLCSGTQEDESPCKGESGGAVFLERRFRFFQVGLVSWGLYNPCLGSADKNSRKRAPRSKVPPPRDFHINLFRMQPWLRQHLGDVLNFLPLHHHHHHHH

In assay [4] the target is T4, human C2 E450A (human, UniProt P06681 21-752).
T4 sequence: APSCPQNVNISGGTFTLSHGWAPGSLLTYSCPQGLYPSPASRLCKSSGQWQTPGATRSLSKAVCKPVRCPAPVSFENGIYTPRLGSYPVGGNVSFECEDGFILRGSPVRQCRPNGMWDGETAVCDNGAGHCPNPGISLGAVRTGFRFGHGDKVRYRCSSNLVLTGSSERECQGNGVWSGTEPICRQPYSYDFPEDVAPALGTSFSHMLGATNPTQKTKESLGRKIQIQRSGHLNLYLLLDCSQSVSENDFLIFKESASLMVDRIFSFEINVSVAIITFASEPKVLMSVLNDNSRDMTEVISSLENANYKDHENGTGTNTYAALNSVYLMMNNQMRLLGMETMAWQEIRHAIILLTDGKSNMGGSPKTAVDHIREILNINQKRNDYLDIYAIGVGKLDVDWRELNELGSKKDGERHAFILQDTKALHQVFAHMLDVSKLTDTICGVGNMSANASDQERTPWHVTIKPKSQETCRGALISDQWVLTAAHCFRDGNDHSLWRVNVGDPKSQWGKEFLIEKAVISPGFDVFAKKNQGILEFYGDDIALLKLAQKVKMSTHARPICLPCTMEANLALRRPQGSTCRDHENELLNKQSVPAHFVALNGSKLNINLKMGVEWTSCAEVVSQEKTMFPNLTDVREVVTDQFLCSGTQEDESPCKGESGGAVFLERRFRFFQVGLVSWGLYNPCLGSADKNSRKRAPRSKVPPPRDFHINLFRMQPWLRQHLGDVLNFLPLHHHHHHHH

B1: RF16-242 (antibody, human IgG4 S228P, lambda, V domains shown)
VH: EVQLLQSGAEVKKPGESLKISCKGSGYSFTSYWIGWVRQMPGKGLEWMGIIYPGDSDTRYSPSFQGQVTISADKSISTAYLQWSSLKASDTAMYYCARRGHYGDYFDYWGQGTLVTVSS
VL: SYELTQPPSVSVSPGQTARITCSGDALPKKYAYWYHQKSGQAPVLVIYEDRRRPSEIPERFSGSSSGTMATLTITGAQVEDEGVYFCYSRDRAGNQRVFGGGTQLTVLG
notes: pH-dependent anti-C2 antibody from a phage display library
B1: the values for the Kd in assay [1], in assay [2] and in assay [4] were 6.8 nM, 13.2 nM and 20.3 nM, respectively. Further, the binding result in assay [3] is given as “no binding”.

As usually defined, the Kd is a measure of binding affinity in units of concentration. High values mean weaker binding, low ones tighter binding.
